Test results from publication PMC4552487 (EMBO Reports, 2015).
One block for each binder: values may come before it.

Key:
Conditions in all cases: both partners purified
[1] = biological target: Ser65-phosphorylated ubiquitin (ubiquitin^Phospho-Ser65) (bovine, UniProt P0CG53 1-76, phosphoserine at 65); experiment: ITC; ubiquitin^PhosSer65 in the syringe titrated into 50 μM wild-type or mutant Parkin in the cell; 50 mM HEPES pH 8.0, 150 mM NaCl, 500 μM TCEP; 20°C; single binding site model
[2] = biological target: Ser65-phosphorylated Dac-ubiquitin (Dac-ubiquitin^PhosSer65) (UniProt P0CG47 1-76, phosphoserine at 65 of ubiquitin); experiment: SEC; Superdex 200 Increase 10/300 GL; 50 mM Tris pH 7.5, 150 mM NaCl; 100 μg of each protein, mixtures incubated for 30 min before chromatography
[3] = biological target: T1, Parkin (80-465)-Biotin, wild type (UniProt O60260 80-465, biotin (position not given)); experiment: AlphaScreen or HTRF; GST-Ubl (1-76) on glutathione acceptor beads and Parkin (80-465)-biotin (WT or H302A) on streptavidin donor beads, 10 nM each; inhibitor proteins in three-fold 10-point dilutions; PBS + 0.1% BSA + 0.1% Triton X-100; RT
T1 sequence (looked up): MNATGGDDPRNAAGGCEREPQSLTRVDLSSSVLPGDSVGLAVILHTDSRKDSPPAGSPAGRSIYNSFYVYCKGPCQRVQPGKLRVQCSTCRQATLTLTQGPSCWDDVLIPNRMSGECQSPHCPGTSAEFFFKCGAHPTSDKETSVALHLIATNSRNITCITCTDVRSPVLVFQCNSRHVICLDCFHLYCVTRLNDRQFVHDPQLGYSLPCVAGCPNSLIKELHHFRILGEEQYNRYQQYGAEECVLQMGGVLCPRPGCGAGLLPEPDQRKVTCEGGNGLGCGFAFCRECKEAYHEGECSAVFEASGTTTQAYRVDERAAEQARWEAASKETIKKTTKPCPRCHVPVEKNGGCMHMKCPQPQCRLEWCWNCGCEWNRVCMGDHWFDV

- Kd [1]: ~7 µM
B1: full-length Parkin Lys151Ala (K151A) mutant, untagged (enzyme, UniProt O60260 1-465, looked up)
chain: MIVFVRFNSSHGFPVEVDSDTSIFQLKEVVAKRQGVPADQLRVIFAGKELRNDWTVQNCDLDQQSIVHIVQRPWRKGQEMNATGGDDPRNAAGGCEREPQSLTRVDLSSSVLPGDSVGLAVILHTDSRKDSPPAGSPAGRSIYNSFYVYCAGPCQRVQPGKLRVQCSTCRQATLTLTQGPSCWDDVLIPNRMSGECQSPHCPGTSAEFFFKCGAHPTSDKETSVALHLIATNSRNITCITCTDVRSPVLVFQCNSRHVICLDCFHLYCVTRLNDRQFVHDPQLGYSLPCVAGCPNSLIKELHHFRILGEEQYNRYQQYGAEECVLQMGGVLCPRPGCGAGLLPEPDQRKVTCEGGNGLGCGFAFCRECKEAYHEGECSAVFEASGTTTQAYRVDERAAEQARWEAASKETIKKTTKPCPRCHVPVEKNGGCMHMKCPQPQCRLEWCWNCGCEWNRVCMGDHWFDV

- binding result [2]: binds
B2: Parkin 1-465 S65A (enzyme, UniProt O60260 1-465, looked up)
chain: MIVFVRFNSSHGFPVEVDSDTSIFQLKEVVAKRQGVPADQLRVIFAGKELRNDWTVQNCDLDQQAIVHIVQRPWRKGQEMNATGGDDPRNAAGGCEREPQSLTRVDLSSSVLPGDSVGLAVILHTDSRKDSPPAGSPAGRSIYNSFYVYCKGPCQRVQPGKLRVQCSTCRQATLTLTQGPSCWDDVLIPNRMSGECQSPHCPGTSAEFFFKCGAHPTSDKETSVALHLIATNSRNITCITCTDVRSPVLVFQCNSRHVICLDCFHLYCVTRLNDRQFVHDPQLGYSLPCVAGCPNSLIKELHHFRILGEEQYNRYQQYGAEECVLQMGGVLCPRPGCGAGLLPEPDQRKVTCEGGNGLGCGFAFCRECKEAYHEGECSAVFEASGTTTQAYRVDERAAEQARWEAASKETIKKTTKPCPRCHVPVEKNGGCMHMKCPQPQCRLEWCWNCGCEWNRVCMGDHWFDV

- binding result [3]: binds
B3: GST-Ubl (Parkin Ubl domain, residues 1-76) (domain or fragment, UniProt O60260 1-76, looked up)
chain: MIVFVRFNSSHGFPVEVDSDTSIFQLKEVVAKRQGVPADQLRVIFAGKELRNDWTVQNCDLDQQSIVHIVQRPWRK
